Experimental data: US20180185504A1 (Regeneron, published 2018)
Like-named read-outs stand apart in the source and are kept apart here.

T1: human prolactin receptor (PRLR) (human, UniProt P16471 25-622)
T1 sequence: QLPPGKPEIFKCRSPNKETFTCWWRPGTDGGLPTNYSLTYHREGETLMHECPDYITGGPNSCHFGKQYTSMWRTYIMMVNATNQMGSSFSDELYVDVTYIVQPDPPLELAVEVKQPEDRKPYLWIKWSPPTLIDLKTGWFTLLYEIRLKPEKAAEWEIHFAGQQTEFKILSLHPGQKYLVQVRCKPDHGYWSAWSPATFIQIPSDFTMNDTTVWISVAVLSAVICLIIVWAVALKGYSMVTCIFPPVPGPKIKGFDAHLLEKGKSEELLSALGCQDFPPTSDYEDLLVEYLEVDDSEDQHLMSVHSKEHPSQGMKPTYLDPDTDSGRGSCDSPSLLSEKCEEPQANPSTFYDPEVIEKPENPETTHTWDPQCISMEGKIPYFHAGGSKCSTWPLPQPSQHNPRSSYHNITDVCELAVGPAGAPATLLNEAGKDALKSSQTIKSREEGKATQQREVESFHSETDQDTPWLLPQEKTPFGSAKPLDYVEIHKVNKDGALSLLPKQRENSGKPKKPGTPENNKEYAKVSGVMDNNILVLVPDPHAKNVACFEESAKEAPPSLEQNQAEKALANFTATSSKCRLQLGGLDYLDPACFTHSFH

T2: human prolactin receptor (PRLR) on cells (human, UniProt P16471 25-622)
T2 sequence: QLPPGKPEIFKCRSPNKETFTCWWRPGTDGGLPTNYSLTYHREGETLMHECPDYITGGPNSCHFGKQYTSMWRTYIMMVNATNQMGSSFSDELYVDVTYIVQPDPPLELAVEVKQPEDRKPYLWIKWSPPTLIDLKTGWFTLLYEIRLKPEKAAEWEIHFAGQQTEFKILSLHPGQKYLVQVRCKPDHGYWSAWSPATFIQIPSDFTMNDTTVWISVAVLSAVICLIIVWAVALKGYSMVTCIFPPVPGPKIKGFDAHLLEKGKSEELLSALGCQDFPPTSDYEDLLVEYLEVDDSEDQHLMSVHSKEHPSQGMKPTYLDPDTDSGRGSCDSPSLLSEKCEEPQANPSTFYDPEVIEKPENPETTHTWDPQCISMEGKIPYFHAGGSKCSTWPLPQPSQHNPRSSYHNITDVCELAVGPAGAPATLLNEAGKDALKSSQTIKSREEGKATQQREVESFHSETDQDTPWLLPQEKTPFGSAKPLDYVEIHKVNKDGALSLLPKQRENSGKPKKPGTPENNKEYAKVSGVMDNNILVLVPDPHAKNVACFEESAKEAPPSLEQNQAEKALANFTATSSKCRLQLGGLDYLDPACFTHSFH

T3: dimeric form of human PRLR (Example 12 ELISA) (human)
T3 construct: PRLR'
T3 sequence (P16471 whole entry, looked up): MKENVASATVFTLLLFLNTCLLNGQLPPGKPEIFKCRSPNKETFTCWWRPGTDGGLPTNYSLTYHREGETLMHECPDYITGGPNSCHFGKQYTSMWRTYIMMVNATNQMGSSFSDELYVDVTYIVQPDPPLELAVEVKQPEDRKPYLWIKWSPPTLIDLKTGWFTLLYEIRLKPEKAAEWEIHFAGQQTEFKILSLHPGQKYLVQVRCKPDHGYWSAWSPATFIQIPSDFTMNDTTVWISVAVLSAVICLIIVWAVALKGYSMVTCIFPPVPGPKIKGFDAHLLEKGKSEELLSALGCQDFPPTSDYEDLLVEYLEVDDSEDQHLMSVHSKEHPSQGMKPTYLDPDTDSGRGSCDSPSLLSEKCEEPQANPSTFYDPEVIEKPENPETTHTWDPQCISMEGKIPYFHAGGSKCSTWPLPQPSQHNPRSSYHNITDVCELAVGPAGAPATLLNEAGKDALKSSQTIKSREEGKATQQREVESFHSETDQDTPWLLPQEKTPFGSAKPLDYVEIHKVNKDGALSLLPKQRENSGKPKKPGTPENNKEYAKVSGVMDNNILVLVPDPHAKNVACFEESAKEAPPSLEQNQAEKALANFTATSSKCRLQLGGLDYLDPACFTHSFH

T4: mouse PRLR with an HA tag on HEK293 cells (mouse, UniProt Q08501 20-608)
T4 construct: whole, on cells; also called HEK293/mPRLR; rodent PRLR; not shown: HA tag
T4 sequence (looked up): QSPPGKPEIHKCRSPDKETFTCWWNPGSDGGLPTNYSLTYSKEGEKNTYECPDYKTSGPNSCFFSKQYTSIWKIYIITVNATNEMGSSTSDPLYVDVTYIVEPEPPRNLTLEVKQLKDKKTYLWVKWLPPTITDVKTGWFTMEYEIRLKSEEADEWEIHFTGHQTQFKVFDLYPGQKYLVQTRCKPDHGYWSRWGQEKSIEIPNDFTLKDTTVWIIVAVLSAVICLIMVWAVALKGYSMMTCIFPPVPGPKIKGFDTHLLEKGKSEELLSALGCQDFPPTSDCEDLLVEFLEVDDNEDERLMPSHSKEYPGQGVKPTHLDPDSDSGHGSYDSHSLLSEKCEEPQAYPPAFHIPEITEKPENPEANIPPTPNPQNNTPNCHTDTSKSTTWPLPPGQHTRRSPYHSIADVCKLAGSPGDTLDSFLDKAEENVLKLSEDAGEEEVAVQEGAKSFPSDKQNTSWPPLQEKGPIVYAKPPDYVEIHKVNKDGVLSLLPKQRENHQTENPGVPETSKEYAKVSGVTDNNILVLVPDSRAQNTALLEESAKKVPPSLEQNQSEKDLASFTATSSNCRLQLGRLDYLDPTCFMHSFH

B1: H1H6953N-DM1 (antibody, human IgG1, V domains shown)
VH: EVQLLESGGGLVQPGGTLRLSCAASGFTFSAYAMSWVRQAPGKGLEWVSSINVRAGDTYYADSVKGRFTISRDNSKNTLFLLMNSLRAEDTAAYYCAKARYSSNWGFDFWGQGTLVTVSS
VL: DIVMTQSPDSLTVSLGARTTINCQSSQTILHSSNNHNYLAWYQQKPGLPPKLLIYWSSTRESGVPDRFSGSGSGTDFTLTISSLQAEDVAIYYCQQYSNTPYTFGQGTKLEIN
modifications: DM1 conjugated through SMCC linker; attachment residues not stated
B2: H1H6958N2-DM1 (antibody, human IgG1, V domains shown)
VH: QVQLVESGGGVVQPGRSLRLSCGASGFTFRNYGMQWVRQGPGKGLEWVTLISFDGNDKYYADSVKGRFTISRDNSKNTLFLQMNSLRTEDTAVYYCARGGDFDYWGQGTLVTVSS
VL: DIQMTQSPSSLSASVGDRVTITCRASQDIRKDLGWYQQKPGKAPKRLIYAASSLHSGVPSRFSGSGSGTEFTLTISSLQPEDFATYYCLQHNSYPMYTFGQGTKLEIK
modifications: DM1 conjugated through SMCC linker; attachment residues not stated
B3: H1H6958N2-DM1 (antibody, human IgG1, V domains shown)
VH: QVQLVESGGGVVQPGRSLRLSCGASGFTFRNYGMQWVRQGPGKGLEWVTLISFDGNDKYYADSVKGRFTISRDNSKNTLFLQMNSLRTEDTAVYYCARGGDFDYWGQGTLVTVSS
VL: DIQMTQSPSSLSASVGDRVTITCRASQDIRKDLGWYQQKPGKAPKRLIYAASSLHSGVPSRFSGSGSGTEFTLTISSLQPEDFATYYCLQHNSYPMYTFGQGTKLEIK
modifications: maytansinoid DM1 conjugated to the antibody through an SMCC linker; conjugation sites not stated
notes: also called H1H6958N2-SMCC-DM1; PRLR ADC
B4: H1H6762P (antibody, human IgG1, V domains shown)
VH: QVQLVESGGGVVQPGRSLRLSCAASGFTFSHYGMVWVRQPPGKGLEWVALISFDGTTKYYADSVKGRFTISRDNSKNTLYLQMNSLRAEDTAVYFCVGAIAAAAFDLWGRGTLVTVSS
VL: EIVMTQSPATLSVSPGERATLSCRASQSVSSDLAWYQQKPGQAPRLLIYSASARATGIPARFTGSGSGTDFTLTISSLQSEDFAVYYCQQYNNWPMYTFGQGTKLEIK
B5: H1H6804P (antibody, human IgG1, V domains shown)
VH: QVTLKESGPVLVKPTQTLSLTCTVSGFSLSDAGMGVSWIRQPPGKALEWLAHIFSNDGKSYSTSLKSRLTISKDTSKRQVVLTMTNMDPVDTATYYCARIRTGTYSLYLDYWGQGTLVTVSS
VL: DIQMTQSPSSLSASVGDRVTITCRASQSINSYLNWYQQKPGKAPKLLLYFASSLQSGVPSRFSGSGSGTDFTLTISSLQPEDFASYYCQESYSTPWTFGQGTKVEIK

How the values were obtained:
[1] = molecular target: T1, human prolactin receptor (PRLR); assay: cell-based or functional assay
[2] = molecular target: T1, human prolactin receptor (PRLR); assay: cell-based or functional assay; remark: listed apart in the source
[3] = molecular target: T1, human prolactin receptor (PRLR); assay: cell-based or functional assay; remark: listed apart in the source
[4] = molecular target: T1, human prolactin receptor (PRLR); assay: cell-based or functional assay; remark: listed apart in the source
[5] = molecular target: T1, human prolactin receptor (PRLR); assay: cell-based or functional assay; remark: listed apart in the source
[6] = molecular target: T1, human prolactin receptor (PRLR); assay: cell-based or functional assay; remark: listed apart in the source
[7] = molecular target: T1, human prolactin receptor (PRLR); assay: cell-based or functional assay; remark: listed apart in the source
[8] = molecular target: T1, human prolactin receptor (PRLR); assay: cell-based or functional assay; remark: listed apart in the source
[9] = molecular target: T1, human prolactin receptor (PRLR); assay: cell-based or functional assay; remark: listed apart in the source
[10] = molecular target: T1, human prolactin receptor (PRLR); assay: cell-based or functional assay; remark: listed apart in the source
[11] = molecular target: T2, human prolactin receptor (PRLR) on cells; assay: cell-based or functional assay
[12] = molecular target: T3, dimeric form of human PRLR (Example 12 …); assay: blocking ELISA: 10 nM dimeric human PRLR premixed with ADC (520 pM to 30 nM), plate-coated human PRL
Protocol: (§1) Dimeric forms of human or cynomolgus monkey (Macaca fascicularis) PRLR and monomeric human PRL were used in this assay. […] After 1-hour incubation, captured PRLR was detected with HRP-conjugated goat anti-Fcγ antibody and visualized with TMB colorimetric substrate by measuring absorbance at 450 nm. […] Mixtures were then added to plates coated with in 1 μg/mL PRL and captured PRLR was detected as described above. Data were analyzed using a four-parameter logistic equation over an 11-point response curve in GraphPad Prism software and IC₅₀ values were calculated.

[13] = molecular target: T5, dimeric form of cynomolgus monkey (Macaca fascicularis) PRLR (Example 12 ELISA) (cynomolgus monkey (Macaca fascicularis)); assay: blocking ELISA: 10 nM dimeric monkey PRLR premixed with ADC (520 pM to 30 nM), plate-coated human PRL
T5 construct: also called monkey PRLR
Protocol: as §1

[14] = molecular target: T4, mouse PRLR with an HA tag on HEK293 …; assay: FACS on HEK293/mPRLR cells

Binder	% Kill, MCF7/ATCC cells [1]	% Kill, MCF7/PRLR cells [1]	% Kill, PC3/hPRLR cells [1]	IC50, cell viability, MCF7/ATCC cells [1]	IC50, cell viability, MCF7/PRLR cells [1]	IC50, cell viability, PC3/hPRLR cells [1]	% Kill, MCF7/PRLR cells [3]	% Kill, MCF7 cells [3]	% Kill, T47D cells [3]	IC50, cell viability, MCF7/PRLR cells [3]	IC50, cell viability, MCF7 cells [3]	IC50, cell viability, T47D cells [3]	% Kill, T47D cells [5]	IC50, cell viability, T47D cells [5]	% Kill, 293/PRLR cells [7]	% Kill, PC3/PRLR cells [7]	IC50, cell viability, 293/PRLR cells [7]	IC50, cell viability, PC3/PRLR cells [7]	% Kill, MCF7/ATCC cells [9]	% Kill, MCF7/PRLR cells [9]	further results
B1	70%	80%	83%	80 nM	0.1 nM	0.4 nM	76%	55%	79%	0.29 nM	100 nM	1.64 nM	100%	1.5 nM	95%	67%	0.28 nM	0.86 nM	70%	80%	IC50, cell viability, MCF7 cells (PRLR 3X) [2]: 82 nM; IC50, cell viability, T47D cells (PRLR 12X) [2]: 1.3 nM; IC50, cell viability, T47D/ErbB2 cells (PRLR 12X) [2]: 2.4 nM; IC50, cell viability, MCF7/PRLR cells (PRLR 55X) [4]: 0.33 nM; IC50, cell viability, MCF/PRLR + ErbB2 cells (PRLR 55X) [4]: 0.33 nM; IC50, cell viability, NCI-N87/PRLR cells (PRLR 6X) [4]: 2.9 nM; IC50, cell viability, 293/PRLR cells (PRLR 18X) [6]: 0.43 nM; IC50, cell viability, PC3/PRLR cells (PRLR 13X) [8]: 0.68 nM; IC50, cell viability, MCF7/ATCC cells [9]: 90 nM; IC50, cell viability, MCF7/PRLR cells [9]: 0.3 nM
B2	72%	83%	79%	90 nM	0.2 nM	0.5 nM	77%	77%	71%	0.19 nM	100 nM	1.34 nM	100%	2 nM	95%	83%	0.1 nM	0.43 nM	70%	80%	IC50, cell viability, T47D cells, + 15 nM PRL [10]: 3 nM; IC50, cell viability, T47D cells, without PRL [10]: 1 nM; IC50, cell viability, MCF7/ATCC cells [9]: 70 nM; IC50, cell viability, MCF7/PRLR cells [9]: 0.2 nM
B3																					IC50, block of PRL-induced STAT5-luciferase activity (2 nM PRL) [11]: 0.4 nM; IC50 [12]: 4.4 nM; IC50 [13]: 4.2 nM
B4																					IC50, block of STAT5 reporter activation by 5 nM PRL in HEK293/hPRLR/STAT5-Luc cells [11]: 0.022 nM; binding result [14]: no binding
B5																					IC50, block of STAT5 reporter activation by 5 nM PRL in HEK293/hPRLR/STAT5-Luc cells [11]: 8 nM; binding result [14]: no binding
